94 variants from the supplement of paper PMC10567573 can be followed below.

The chains are these.
B1: FBXO3 (parent)
chain: GGFPIIRDQIFRYVHDPECVATTG
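Note: lentivirally expressed fusions sorted by FACS into six bins by GFP to DsRed ratio, PSI derived from sequencing read proportions per bin multiplied by bin number.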

This data set covers variants of B1. The experiment in a line: protein stability index of a GFP-peptide fusion (GPS, HEK-293T) (PSI 1-6); higher = more stable. As to conditions: c terminus: a fixed tail appended.
As for GGWPIIRDQIFRYVHDPECVATTG, the protein stability index was 2.28.
Next, GGMPIIRDQIFRYVHDPECVATTG: 2.1; GGAPIIRDQIFRYVHDPECVATTG: 3.13.
As to GGYPIIRDQIFRYVHDPECVATTG, the protein stability index came to 1.57.
Under GGCPIIRDQIFRYVHDPECVATTG stands 2.14; under GGRPIIRDQIFRYVHDPECVATTG, 2.59; under GGKPIIRDQIFRYVHDPECVATTG, 2.87.
Next, GGQPIIRDQIFRYVHDPECVATTG: 2.58; GGIPIIRDQIFRYVHDPECVATTG: 2.29.
Under GGNPIIRDQIFRYVHDPECVATTG stands 2.78.
Regarding GGTPIIRDQIFRYVHDPECVATTG, the protein stability index is 3.17.
Next, GGEPIIRDQIFRYVHDPECVATTG: 2.9; GGLPIIRDQIFRYVHDPECVATTG: 1.94; GGDPIIRDQIFRYVHDPECVATTG: 3.2.
With GGGPIIRDQIFRYVHDPECVATTG, the protein stability index worked out at 2.55.
Next, GGHPIIRDQIFRYVHDPECVATTG: 2.21; GGVPIIRDQIFRYVHDPECVATTG: 2.38; GGPPIIRDQIFRYVHDPECVATTG: 2.76.
In the case of GGSPIIRDQIFRYVHDPECVATTG, the protein stability index was 2.59.
Under GGFPIITDQIFRYVHDPECVATTG stands 2.72; under GGFPIIPDQIFRYVHDPECVATTG, 2.47.
In the case of GGFPIINDQIFRYVHDPECVATTG, the protein stability index worked out at 2.83.
Under GGFPIIFDQIFRYVHDPECVATTG stands 1.67; under GGFPIICDQIFRYVHDPECVATTG, 2.35; under GGFPIISDQIFRYVHDPECVATTG, 2.45.
Next, GGFPIIDDQIFRYVHDPECVATTG: 3.92.
For the variant GGFPIILDQIFRYVHDPECVATTG, the protein stability index was determined as 1.32.
Next, GGFPIIEDQIFRYVHDPECVATTG: 3.79.
Turning to GGFPIIHDQIFRYVHDPECVATTG, the protein stability index turned out to be 2.56.
Next, GGFPIIGDQIFRYVHDPECVATTG: 2.99.
As for GGFPIIKDQIFRYVHDPECVATTG, the protein stability index turned out to be 2.4.
Under GGFPIIQDQIFRYVHDPECVATTG stands 3.09.
Consider GGFPIIIDQIFRYVHDPECVATTG, for which the protein stability index was found to be 1.69.
Under GGFPIIMDQIFRYVHDPECVATTG stands 1.53.
On to GGFPIIADQIFRYVHDPECVATTG, for which the protein stability index turned out to be 3.41.
On to GIFPIIRDQIFRYVHDPECVATTG, for which the protein stability index amounted to 2.2.
Under GVFPIIRDQIFRYVHDPECVATTG stands 2.5.
GFFPIIRDQIFRYVHDPECVATTG: the protein stability index is 2.03.
Next, GDFPIIRDQIFRYVHDPECVATTG: 3.02; GKFPIIRDQIFRYVHDPECVATTG: 2.54; GLFPIIRDQIFRYVHDPECVATTG: 1.86.
For the variant GWFPIIRDQIFRYVHDPECVATTG, the protein stability index was determined as 2.87.
Under GNFPIIRDQIFRYVHDPECVATTG stands 2.28; under GEFPIIRDQIFRYVHDPECVATTG, 1.97.
Next, GSFPIIRDQIFRYVHDPECVATTG: 1.76.
Turning to GTFPIIRDQIFRYVHDPECVATTG, the protein stability index came out at 2.19.
Next, GQFPIIRDQIFRYVHDPECVATTG: 1.25.
Next, GMFPIIRDQIFRYVHDPECVATTG: 1.68.
Under GAFPIIRDQIFRYVHDPECVATTG stands 1.82; under GHFPIIRDQIFRYVHDPECVATTG, 1.76; under GRFPIIRDQIFRYVHDPECVATTG, 2.41.
Turning to GPFPIIRDQIFRYVHDPECVATTG, the protein stability index was determined as 2.38.
Under GYFPIIRDQIFRYVHDPECVATTG stands 1.78; under GCFPIIRDQIFRYVHDPECVATTG, 1.51; under GGFNIIRDQIFRYVHDPECVATTG, 2.15.
Next, GGFDIIRDQIFRYVHDPECVATTG: 2.72; GGFAIIRDQIFRYVHDPECVATTG: 1.66.
Under GGFCIIRDQIFRYVHDPECVATTG stands 2.23.
Regarding GGFRIIRDQIFRYVHDPECVATTG, the protein stability index amounted to 2.21.
As for GGFTIIRDQIFRYVHDPECVATTG, the protein stability index was determined as 1.67.
Under GGFHIIRDQIFRYVHDPECVATTG stands 2.02; under GGFKIIRDQIFRYVHDPECVATTG, 2.54.
Under GGFIIIRDQIFRYVHDPECVATTG stands 2.08; under GGFFIIRDQIFRYVHDPECVATTG, 2.3.
Turning to GGFQIIRDQIFRYVHDPECVATTG, the protein stability index came out at 1.75.
Turning to GGFLIIRDQIFRYVHDPECVATTG, the protein stability index came to 2.39.
Under GGFGIIRDQIFRYVHDPECVATTG stands 2.33; under GGFVIIRDQIFRYVHDPECVATTG, 1.29.
In the case of GGFYIIRDQIFRYVHDPECVATTG, the protein stability index is 2.75.
Under GGFSIIRDQIFRYVHDPECVATTG stands 2.03; under GGFEIIRDQIFRYVHDPECVATTG, 2.93; under GGFPLIRDQIFRYVHDPECVATTG, 1.64.
Next, GGFPHIRDQIFRYVHDPECVATTG: 2.14; GGFPMIRDQIFRYVHDPECVATTG: 2.71.
Turning to GGFPCIRDQIFRYVHDPECVATTG, the protein stability index turned out to be 1.86.
Next, GGFPFIRDQIFRYVHDPECVATTG: 1.58; GGFPYIRDQIFRYVHDPECVATTG: 2.26.
Under GGFPPIRDQIFRYVHDPECVATTG stands 1.85; under GGFPQIRDQIFRYVHDPECVATTG, 1.59; under GGFPVIRDQIFRYVHDPECVATTG, 1.58.
Consider GGFPSIRDQIFRYVHDPECVATTG, for which the protein stability index was determined as 2.23.
Consider GGFPAIRDQIFRYVHDPECVATTG, for which the protein stability index came to 2.39.
For the variant GGFPKIRDQIFRYVHDPECVATTG, the protein stability index is 1.19.
Next, GGFPRIRDQIFRYVHDPECVATTG: 1.86; GGFPTIRDQIFRYVHDPECVATTG: 2.28; GGFPWIRDQIFRYVHDPECVATTG: 1.53.
Under GGFPEIRDQIFRYVHDPECVATTG stands 2.64.
Under GGFPNIRDQIFRYVHDPECVATTG stands 2.4; under GGFPGIRDQIFRYVHDPECVATTG, 2.32; under GGFPDIRDQIFRYVHDPECVATTG, 2.61.
With TGFPIIRDQIFRYVHDPECVATTG, the protein stability index turned out to be 2.74.
For WGFPIIRDQIFRYVHDPECVATTG, the protein stability index worked out at 1.73.
For the variant DGFPIIRDQIFRYVHDPECVATTG, the protein stability index stood at 2.65.
Under PGFPIIRDQIFRYVHDPECVATTG stands 2.51.
